Assay results taken from article PMC11055898.

Experiments:
Assay in all cases: SPR
[1] = target: mouse CD64
[2] = target: human FcRn
[3] = target: mouse CD16-2
[4] = target: human CD64 (FcgRI) (human) (UniProt P12314)
[5] = target: mouse neonatal Fc receptor (FcRn) (mouse) (UniProt Q61559)
Sequence of mouse neonatal Fc receptor (FcRn) (mouse) (Q61559 22-297): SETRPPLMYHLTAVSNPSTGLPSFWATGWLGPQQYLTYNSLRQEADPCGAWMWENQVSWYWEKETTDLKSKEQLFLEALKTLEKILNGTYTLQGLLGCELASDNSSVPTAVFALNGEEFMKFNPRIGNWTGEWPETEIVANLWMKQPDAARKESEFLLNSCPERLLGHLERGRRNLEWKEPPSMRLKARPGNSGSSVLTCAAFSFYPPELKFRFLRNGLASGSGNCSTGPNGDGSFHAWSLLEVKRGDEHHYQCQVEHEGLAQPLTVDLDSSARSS

Sequence of human IgG3 (antibody specific for the receptor binding domain of SARS-CoV-2, clone not named) (P01860 whole entry, looked up, the tested form may be a part): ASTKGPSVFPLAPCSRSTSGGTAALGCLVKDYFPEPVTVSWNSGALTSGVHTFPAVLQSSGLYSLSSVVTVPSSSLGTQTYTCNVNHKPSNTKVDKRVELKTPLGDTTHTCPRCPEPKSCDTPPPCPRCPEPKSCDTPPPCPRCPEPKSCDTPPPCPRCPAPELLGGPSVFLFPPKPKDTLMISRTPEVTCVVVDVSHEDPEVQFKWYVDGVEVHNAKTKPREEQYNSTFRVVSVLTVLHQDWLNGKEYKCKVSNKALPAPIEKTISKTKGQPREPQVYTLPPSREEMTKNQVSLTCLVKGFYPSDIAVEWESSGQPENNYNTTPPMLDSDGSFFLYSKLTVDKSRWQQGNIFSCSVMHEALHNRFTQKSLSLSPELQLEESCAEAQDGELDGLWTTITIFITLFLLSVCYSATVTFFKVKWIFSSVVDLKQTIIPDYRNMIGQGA
Sequence of human CD64 (FcgRI) (human) (P12314 16-374): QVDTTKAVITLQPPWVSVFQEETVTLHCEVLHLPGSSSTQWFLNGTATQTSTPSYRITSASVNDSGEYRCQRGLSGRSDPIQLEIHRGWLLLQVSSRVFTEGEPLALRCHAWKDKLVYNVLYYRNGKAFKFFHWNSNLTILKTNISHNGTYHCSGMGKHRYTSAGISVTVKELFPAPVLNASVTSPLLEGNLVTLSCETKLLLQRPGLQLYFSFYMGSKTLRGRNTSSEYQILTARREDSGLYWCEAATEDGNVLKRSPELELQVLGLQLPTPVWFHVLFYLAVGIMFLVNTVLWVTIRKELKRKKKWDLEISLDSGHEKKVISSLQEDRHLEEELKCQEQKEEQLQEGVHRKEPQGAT

Substance | Kd [1] | koff [1] | Kd [2] | koff [2] | Kd [3] | koff [3] | Kd [4] | koff [4] | Kd [5] | koff [5]
human IgG1 (antibody specific for the receptor binding domain of SARS-CoV-2, clone not named) (from UniProt P01857) | 0.246 µM | 0.062 s⁻¹ | 0.3 µM | 0.088 s⁻¹ | 0.415 µM | 0.0275 s⁻¹ | 0.0024 µM | 0.00014 s⁻¹ | 0.0099 µM | 0.001 s⁻¹
human IgG3 (antibody specific for the receptor binding domain of SARS-CoV-2, clone not named) (from UniProt P01860) | 0.014 µM | 0.0014 s⁻¹ | – | – | – | – | 0.0081 µM | 0.00033 s⁻¹ | – | –
